According to PMC8225418:

T1: wt Dpo4 (DNA polymerase IV) (Sulfolobus solfataricus, UniProt Q97W02 1-352)
T1 sequence: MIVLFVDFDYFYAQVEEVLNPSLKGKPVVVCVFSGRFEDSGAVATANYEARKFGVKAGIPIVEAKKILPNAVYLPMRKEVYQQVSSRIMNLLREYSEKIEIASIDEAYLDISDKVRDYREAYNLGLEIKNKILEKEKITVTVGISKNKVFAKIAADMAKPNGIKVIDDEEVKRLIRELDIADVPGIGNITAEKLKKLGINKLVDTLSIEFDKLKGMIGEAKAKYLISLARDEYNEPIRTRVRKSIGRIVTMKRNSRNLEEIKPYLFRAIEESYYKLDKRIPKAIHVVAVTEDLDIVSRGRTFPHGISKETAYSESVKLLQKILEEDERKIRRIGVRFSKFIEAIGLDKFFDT

B1: Alexa488-labeled DNAOH (dsDNA)
DNA 1: CGAGCCGTCGCATCCTACCGC
DNA 2: GATGCTGCAGCGGTAGGATGCGACGGCTCG
modifications: 5-C6-amino-2'-deoxythymidine at T13 of primer (ninth base from 3' end)
B2: DNAOH (21-mer/30-mer) (dsDNA)
DNA 1: CGAGCCGTCGCATCCTACCGC
DNA 2: B1 DNA 2

Tests used:
[1] = biological target: T1, wt Dpo4 (DNA polymerase IV); experiment: stopped-flow fluorescence anisotropy
[2] = biological target: T1, wt Dpo4 (DNA polymerase IV); experiment: stopped-flow FRET

Binder	binding result [1]	binding result [2]
B1	binds	–
B2	–	binds
